Measurements published in FireProtDB (doi:10.1093/protein/gzi067).

B1: Cytochrome b5, P00171 (parent)
chain: MAEESSKAVKYYTLEEIQKHNNSKSTWLILHYKVYDLTKFLEEHPGGEEVLREQAGGDATENFEDVGHSTDARELSKTFIIGELHPDDRSKITKPSESIITTIDSNPSWWTNWLIPAISALFVALIYHLYTSEN

Variants of: B1
Conditions: Bos taurus, pH 7, 25 °C, CD, MOPS 30 mM, reversible: yes (partial), structure 1CYO, whole UniProt chain shown

S76L L37I
ddG of mutation (higher = less stable) (GdnHCl): -0.5 kcal/mol
denaturant midpoint (higher = more stable) (GdnHCl): 1.9 M
unfolding free energy (GdnHCl): 3.5 kcal/mol
denaturant midpoint (higher = more stable) (GdnSCN): 1.8 M

S76L
ddG of mutation (higher = less stable) (GdnHCl): -0.8 kcal/mol
denaturant midpoint (higher = more stable) (GdnHCl): 2.3 M
unfolding free energy (GdnHCl): 3.8 kcal/mol
denaturant midpoint (higher = more stable) (GdnSCN): 1.59 M
